Results on 29 sequences are retold here after the Immune Epitope Database (IEDB).

The target of assay [1] is HLA-A*26:01. The assay is described as follows: IEDB peptide-MHC binding, purified MHC/competitive/radioactivity; filed as Kd, often an IC50 or EC50 that approximates it; ≥ and ≤ were set here for values at or beyond the usual limits of such assays.
Assay [2] deals with HLA-A*30:02. Described as above.
Assay [3] concerns the target HLA-A*24:02. Described as above.
For assay [4], the target named is HLA-B*44:02. The description is as above.
The target of assay [5] is HLA-B*44:03. The description is as above.
Assay [6] addresses HLA-B*40:01. Described as above.
Assay [7] deals with HLA-A*01:01. The assay is described as above.
In assay [8] the target is HLA-A*23:01. Described as above.
In assay [9] the target is HLA-A*29:02. Described as above.
Assay [10] deals with HLA-B*53:01. The assay is described as above.
Assay [11] has as its target HLA-A*26:01. Description: IEDB peptide-MHC binding, purified MHC/direct/fluorescence; filed as Kd, often an IC50 or EC50 that approximates it; ≥ and ≤ were set here for values at or beyond the usual limits of such assays. To be noted: source organism: Mycobacterium tuberculosis.
Assay [12] concerns the target HLA-B*15:01. Described as above. Particulars: source organism: Mammarenavirus lassaense.
Assay [13] has as its target HLA-A*03:01. Description: IEDB peptide-MHC binding, purified MHC/competitive/radioactivity; filed as Kd, often an IC50 or EC50 that approximates it; ≥ and ≤ were set here for values at or beyond the usual limits of such assays. Particulars: source organism: Dengue virus 1 Brazil/97-11/1997.
Assay [14] has as its target HLA-A*11:01. The assay is described as above. Particulars: source organism: Dengue virus 1 Brazil/97-11/1997.
Assay [15] addresses HLA-A*30:01. The description is as above.
Assay [16] concerns the target HLA-A*03:01. The assay is described as follows: IEDB peptide-MHC binding, purified MHC/direct/fluorescence; filed as Kd, often an IC50 or EC50 that approximates it; ≥ and ≤ were set here for values at or beyond the usual limits of such assays.
Assay [17] deals with HLA-A*31:01. The description is as above. Particulars: source organism: Shigella sonnei Ss046.
The target of assay [18] is HLA-A*01:01. The description is as above. Particulars: source organism: SARS-CoV1.
Assay [19] deals with HLA-A*11:01. The description is as above. Particulars: source organism: SARS-CoV1.
Assay [20] has as its target HLA-B*58:01. The assay is described as above. To be noted: source organism: SARS-CoV1.
[21] abbreviates: source organism: Mammarenavirus guanaritoense.
The mark [22] stands for this setting: source organism: Dengue virus 2 Jamaica/1409/1983.
The mark [23] stands for this setting: source organism: Dengue virus 3 Martinique/1243/1999.
Where [24] appears, read: source organism: SARS coronavirus Tor2.
[25] abbreviates: source organism: Dengue virus 1 Brazil/97-11/1997.
Where [26] appears, read: source organism: Dengue virus 4 Philippines/H241/1956.
Setting [27] is: source organism: Mammarenavirus lassaense.
Setting [28] is: source organism: Dengue virus 1 Singapore/S275/1990.
Where [29] appears, read: source organism: Mammarenavirus juninense.

As for GHHTNFESF, the Kd in [1] (setting [21]) was not below 77900 nM; in [2] (setting [21]), 3830 nM.
For the sequence SYTQVCDHRL, in assay [3] (source organism: Dengue virus 1 Nauru/West Pac/1974), the equilibrium dissociation constant (Kd) was determined as 930 nM.
Take KEGTFHTMW: the Kd came out at 102 nM in assay [4] (setting [22]) and 47 nM in [5] (setting [22]).
For VEPWLKNNQF, the dissociation constant (Kd) in assay [6] (setting [23]) came out at 1620 nM; in assay [4] (setting [23]), 93.7 nM; in [5] (setting [23]), 162 nM.
For MWLSYFVASF, the dissociation constant (Kd) in assay [7] (setting [24]) was determined as 1140 nM; in assay [8] (setting [24]) it was 0.257 nM; in assay [3] (setting [24]), 15.4 nM; in assay [1] (setting [24]), 142 nM; in assay [9] (setting [24]), 38.5 nM; in assay [2] (setting [24]), 2400 nM.
As for PATLFVWYF, the equilibrium dissociation constant (Kd) in assay [10] (setting [25]) was 1890 nM.
As for PVNDLKYSW, the Kd in assay [10] (setting [26]) was determined as 782 nM.
Regarding VTTLGLPFY, the dissociation constant Kd in assay [11] was 13000 nM.
As for ETLQRKYGGA, the Kd in assay [1] (setting [22]) came to 311 nM.
QEKGKSLLF: the figures for the dissociation constant (Kd) in assay [4] (setting [22]) and in [5] (setting [22]) were 52.7 nM and 1140 nM, respectively.
For the sequence LMANLAPHL, the Kd in [7] (setting [24]) is 6080 nM; in assay [8] (setting [24]) it was 11800 nM; in [3] (setting [24]), not below 31200 nM; in assay [1] (setting [24]) it was not below 77900 nM; in assay [9] (setting [24]), 3650 nM; in [2] (setting [24]) it was 12000 nM.
As for IQNKLSSTF, the Kd is 24 nM in assay [12], 345 nM in assay [8] (setting [27]), 272 nM in [3] (setting [27]) and not below 35000 nM in [9] (setting [27]).
Regarding KAELEEGVY, the Kd in [2] (setting [23]) was not below 52800 nM.
Regarding RYNLDPDTI, the Kd in [8] (setting [21]) was 6790 nM; in assay [3] (setting [21]), 2970 nM; in assay [9] (setting [21]), not below 40600 nM.
For the sequence STTEAILPEY, the dissociation constant (Kd) in assay [7] (setting [23]) is 232 nM; in assay [1] (setting [23]), 48 nM; in [2] (setting [23]) it was not below 61200 nM.
As for HERGRPLLF, the Kd in assay [5] (setting [26]) came to 1000 nM.
In the case of SILLSSLLK, the values for the Kd in assay [13], in assay [14] and in [15] (setting [25]) were 8.01 nM, 19.3 nM and 2140 nM, respectively.
Regarding FETTMRGAKR, in assay [6] (setting [22]), the dissociation constant (Kd) was 3580 nM.
Regarding VEIWTKEGEK, the dissociation constant Kd in assay [6] (setting [23]) is 754 nM.
In the case of IPQWEPSKGW, the dissociation constant (Kd) in assay [10] (setting [25]) came out at 90 nM.
In the case of RPVLFRYTR, the Kd in assay [16] (source organism: Shigella sonnei Ss046) was not below 20000 nM; in assay [17] it was 416 nM.
For the sequence GTDSGFAAY, the Kd in [18] was 13 nM; in [16] (source organism: SARS-CoV1) it was 714 nM; in [19], 103 nM; in assay [20], 11600 nM; in assay [8] (setting [24]), not below 77800 nM; in [3] (setting [24]), not below 77600 nM. In addition, the dissociation constant (Kd) in [1] (setting [24]) worked out at 2350 nM; in assay [9] (setting [24]) it was 52.9 nM; in [2] (setting [24]) it was 15.7 nM.
For the sequence WEPSKGWKNW, the Kd in assay [4] (setting [26]) is 150 nM.
As to QKATLTEGVY, the Kd in [2] (setting [26]) came out at 15.6 nM.
Consider EEFLDYMPSM, for which the results for the dissociation constant Kd in assay [15] (setting [23]), in assay [6] (setting [23]) and in assay [5] (setting [23]) were 2290 nM, 142 nM and 70.8 nM, respectively.
On to VYPLSIPATL, for which the equilibrium dissociation constant (Kd) in assay [8] (setting [28]) stood at 15.3 nM; in [3] (setting [28]), 111 nM.
On to LYIKDIFTR, for which the results for the Kd in assay [7] (setting [29]), in assay [1] (setting [29]) and in assay [2] (setting [29]) were not below 78100 nM, not below 77900 nM and not below 76900 nM, respectively.
Consider LETPNLAERV, for which, in assay [6] (setting [28]), the equilibrium dissociation constant (Kd) stood at 1010 nM.
On to TWALCEALTL, for which the Kd was found to be 511 nM in [8] (setting [22]) and 114 nM in assay [3] (setting [22]).
